According to patent publication US6335019B1, “Methods for treating sensitivity to protein allergen using peptides which include a T cell epitope recognized by a T cell receptor specific for the protein allergen” (Immulogic Pharmaceutical Corp., priority 1989, dated 2002):

How the values were obtained:
[1] = system: human IgE (ragweed allergic patient sera); test: SDS-PAGE Western blot (and ELISA) of ragweed allergic patient IgE binding to pollen, affinity purified and recombinant Amb a I / Amb a II; set-up: key to IgE binding, summarized Western blot data: −: no signal over background; +−: barely discernable over background; +: clearly positive; ++: strongly positive; +++: highly positive
Description: As represented in FIG. 1A, a selected monoclonal antibody (designated 4B5/B7) which recognizes an Amb a I preparation unsubjected to denaturing conditions was used to affinity purify from pollen extract a single protein, which is referred to as affinity purified Amb a I. This was carried out, using known techniques, by producing the desired monoclonal antibody, isolating it in large quantities from ascites and immobilizing it on Sepharose (Pharmacia). Aqueous pollen extract was passed over the monoclonal antibody-containing column and a protein species was eluted.
(§1) Furthermore, full-length and truncated cDNAs encoding several members of the Amb a I multigene family, as well as Amb a II, were cloned in-frame into the expression vector pTrc99 (Amann et al. Gene, 69:301-315, (1988)) and transformed into the JM109 host. Expression of recombinant Amb a I and Amb a II protein was induced by 1 mM isopropyl-β-D-thiogalactopyranoside, cells were harvested, lysozyme treated, sonicated and insoluble inclusion bodies recovered by a low speed centrifugation. Recombinant Amb a I and Amb a II protein present in the recovered pellet was solubilized in buffer containing 8M urea, 50 mM Tris HC1 pH8.0, 50 mM NaCl, 1 mM EDTA, 1 mM dithiothreitol, 1 mM phenylmethylsulfonyl fluoride. After solubilization, the crude urea lysate was dialyzed at 4° C. against PBS. […] This antigenic cross-reactivity is consistent with the observed sequence homology of the cDNAs (see FIG. 16).
Comparison of human IgE binding to recombinant Amb a I and Amb a II proteins with anti-peptide and monoclonal anti-Amb a I antibodies have provided data consistent with the conclusion that the N-terminal portion (historically referred to as the β-region) of Amb a IA includes the major IgE eptiope(s).
Affinity purified Amb a I was electrophoresed, Western transferred (Towbin et al., Proc. Natl. Acad. Sci. USA, 76:4350 (1979)) and probed with a variety of antibodies, including IgE from an allergic patient (FIG. 17). In pollen extract Amb a I is not only present as an intact 38-KD species, but also characterized by its component 26KD alpha chains and 12-KD beta chains which are formed by enzymatic cleavage. The intact 38-KD species and the alpha chain are clearly detected using rabbit anti-Amb a I, polyclonal affinity purified anti-RAE 16 and monoclonal anti-Amb a I JBIE3-4 (FIG. 17); RAE 16 peptide has the sequence RTDKDLLENGAIC derived from amino-acids […] of Amb a IB, FIG. 16). Affinity purified Amb a I (partial sequence presented in Table 1) as well as chromatographically purified Amb a II (partial sequence presented in Table 2) are bound on Western blots by these antibodies as well as by patient IgE (FIG. 17). The goat anti-Amb a I polyclonal antibody also binds multiple Amb a I and Amb a II species on a two dimensional Western blot of pollen extract (FIG. 18). The Western blot was performed as outlined below. […]

[2] = system: rabbit anti-Amb a I polyclonal antibody; test: Western blot with rabbit anti-Amb a I polyclonal antibody (FIG. 17); format: binding
Text: As is also represented in FIG. 1A, rabbit polyclonal antibodies were produced using the King Antigen E preparation. […] These antibodies were also shown, using a similar technique, to bind to the affinity purified Amb a I described previously (FIG. 17).
It is clear from the antibody reactivity that the 4B5/B7 affinity purified Amb a I has a recognition pattern similar to that of the Amb a I of pollen and skin test reagent with both rabbit polyclonal anti-Amb a I and JB1E3-4 anti-Amb a I monoclonal antibody (FIG. 17).
Affinity purified Amb a I was electrophoresed, Western transferred (Towbin et al., Proc. Natl. Acad. Sci. USA, 76:4350 (1979)) and probed with a variety of antibodies, including IgE from an allergic patient (FIG. 17). In pollen extract Amb a I is not only present as an intact 38-KD species, but also characterized by its component 26KD alpha chains and 12-KD beta chains which are formed by enzymatic cleavage. The intact 38-KD species and the alpha chain are clearly detected using rabbit anti-Amb a I, polyclonal affinity purified anti-RAE 16 and monoclonal anti-Amb a I JBIE3-4 (FIG. 17); RAE 16 peptide has the sequence RTDKDLLENGAIC derived from amino-acids 343-353 of Amb a IB, FIG. 16). […]

[3] = system: goat anti-Amb a I antibody; test: Western blot of E. coli-expressed recombinant Amb a I / Amb a II with goat anti-Amb a I antibody (FIG. 19); format: binding
Description: as §1
Isoelectric focusing was done on a Hoeffer gel apparatus with 15 μg of crude soluble pollen protein. The gel consisted of 7.5% acrylamide with 3.5% Pharmalytes pH 4.5-5.3 (Pharmacia) and 3.5% Ampholines pH 3.5-10 (LKB), run at 13W for 3.5 hours until a constant voltage was reached. The gel section was placed on a slab of 10% acrylamide SDS-PAGE and electrophoresed for 3.5 hours at 40 mA according to the protocol cited. The proteins were transferred overnight in phosphate buffer to 0.1 micron nitrocellulose (Schleicher and Schuell) at 0.2A. The blot was rinsed in blot solution (25 mM Tris-CHl pH 7.5, 0.171 M NaCl, 0.05% Tween-20; Sigma). The first antibody incubation was overnight at room temperature with a […] of goat anti-Amb a I IgC (obtained from Dr. David Marsh) in blot solution. The excess first antibody was removed with three 15 minute rinses with blot solution. The second antibody was a 1:2,500 dilution of biotinylated swine anti-goat IgG (Boehringer-Manneheim) in blot solution for two hours. The blot was then rinsed with blot solution three times for 15 minutes and incubated for 1 hr in blot solution with 2 μCi I^125 streptavidin (Amersham). The blots were rinsed with blot solution until the waste wash was down to background. The blot was then exposed to film at —80° C. overnight. In the case of one-dimensional SDS-PAGE Western blots (FIGS. 17, 19 and 20) the isoelectric focusing step was omitted. When human sera was used to probe the Western blots (FIGS. 17 and 20), 10% human plasma in 1% milk in blot solution was incubated overnight with the blot prior to using as second antibody biotinylated goat anti-human IgE.

[4] = system: rabbit antisera directed against an Amb a II sequence (amino acid 326-338; RAE 50. K); test: Western blot of recombinant proteins with monospecific anti-peptide antisera against RAE 50. K; format: binding; settings: Western blots, data not shown
Text: Proteins or peptides encoded by the cDNA of the present invention can be used, for example, as “purified” allergens. Such purified allergens are useful in the standardization of allergen extracts which are key reagents for the diagnosis and treatment of ragweed allergy. Furthermore, by using peptides based on the sequences listed in FIGS. 2 through 16, anti-peptide antisera or monoclonal antibodies can be made using standard methods. Such reagents can be specifically directed against individual isoforms of Amb a I or Amb a II (i.e., directed against divergent regions/epitopes of the molecule) or can be specific for all forms Amb a I or Amb a II (i.e, directed against common sequences/epitopes). These sera or monoclonal antibodies, directed against Amb a I or Amb a II, can be used to standardize allergen extracts. One such monospecific anti-peptide antisera has already been successfully produced.

| Molecule | Human IgE binding (in words) ([1]; Western blot (FIG. 17) and/or ELISA, ragweed allergic patient IgE) | Binding by rabbit anti-Amb a I polyclonal antibodies (in words) [2] | IgE binding, summarized Western blot data ([1]; patient 151) | IgE binding, summarized Western blot data ([1]; patient 222) | IgE binding, summarized Western blot data ([1]; patient 291) | IgE binding, summarized Western blot data ([1]; patient 295) | IgE binding, summarized Western blot data ([1]; patient 296) | Binding by goat anti-Amb a I antibody (in words) [3] | Binding by rabbit anti-RAE 50. K antisera (in words) [4] |
| --- | --- | --- | --- | --- | --- | --- | --- | --- | --- |
| chromatographically purified Amb a II: chromatographically purified Amb a II (Antigen K) from ragweed pollen (protein) GEEVDILPSPNDTRRSLQGCEAHNIIDKCWRCKPDWAENRQALGNCAQGFGKATHGGKWGDIYMVTSDQDDDVVNPKEGTLRFGATQDRPLWIIFQRDMIIYLQQEMVVTSDKTIDGRGAKVELVYGGITLMNVKNVIIHNIDIHDVRVLPGGRIKSNGGPAIPRHQSDGDAIHVTGSSDIWIDHCTLSKSFDGLVDVNWGSTGVTISNCKFTHHEKAVLLGASDTHFQDLKMHVTLAYNIFTNTVHERMPRCRFGFFQIVNNFYDRWDKYAIGGSSNPTILSQGNKFVAPDFIYKKNVCLRTGAQEPEWMTWNWRTQNDVLENGAIFVASGSDPVLTAEQNAGMMQAEPGDMVPQLTMNAGVLTCSPGAPC | bound | cross-reactive B-cell epitopes |  |  |  |  |  |  |  |
| Amb a II: E. coli expressed recombinant Amb a II (Antigen K) (protein) LYFTLALVTLVQAGRLGEEVDILPSPNDTRRSLQGCEAHNIIDKCWRCKPDWAENRQALGDCAQGFGKATHGGKWGDIYMVTSDQDDDVVNPKEGTLRFGATQDRPLWIIFQRDMIIYLQQEMVVTSDTTIDGRGAKVELVYGGITLMNVKNVIIHNIDIHDVRVLPGGRIKSNGGPAIPRHQSDGDAIHVTGSSDIWIDHCTLSKSFDGLVDVNWGSTGVTISNCKFTHHEKAVLLGASDTHFQDLKMHVTLAYNIFTNTVHERMPRCRFGFFQIVNNFYDRWDKYAIGGSSNPTILSQGNKFVAPDFIYKKNVCLRTGAQEPEWMTWNWRTQNDVLENGAIFVASGSDPVLTAEQNAGMMQAEPGDMVPQLTMNAGVLTCSPGAPC |  |  | + | + | +− | − | − | binds specifically | binds specifically |
